System: Saccharomyces cerevisiae
Experiment: transcriptional activation domain activity (GFP:mCherry ratio, weighted mean of sorted bins, harmonized to initial dataset scale) (arbitrary fluorescence ratio units); higher = stronger transcriptional activation
Settings: beta-estradiol 1 µM; induction time 4 h
Procedure, shortened: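 For this assay, yeast diploids with a GFP reporter carried barcoded protein tiles at URA3, each fused to an estradiol-inducible synthetic transcription factor. Induction was a 1:5 dilution into SC with 1 uM beta-estradiol for 4 hours at 30 °C, followed by sorting into 8 bins by GFP:mCherry ratio and barcode sequencing. Tiles under 50 reads were dropped, and activation activity was calculated as the read-weighted mean of bin median fluorescence, averaged across barcodes and linearly mapped onto the initial dataset scale.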

Sequence | transcriptional activation domain activity
PSRTSCATPSPTSSTSAVPSARSSTGPRSRSRSRTASTSSTRASAAPSCSCAR | 10500
MCLTGLWWFVCKFAFSFFLSAGLFFLIHPPLFLILLPLSSFFLFLSLAAASGF | 31400
LNPDYIVGLSSLILVMCYIYKACYVSLLLSMHPLILLCMLCSSFTFIAIIVMI | 47700
LFFYFFIFLFFYFFILLFYYFIILLFYYLFFFFATVLILILLFFFFFFTYQRT | 47600
VNGDLFEADGCTIQWLLDNSHGLIFAVAYPRILTLTYVPALLQTIKTLFLSLF | 44000
KSRKRAKKSPEESEVESKHRRRRSRKAVEDENDENSHCKRTKKVAGAESEKAV | 19700
KFNLLEWSEILSLLTCYRLLIAMYSFRSLVIVIASYIVFGLSVFSLLVRLLFL | 38100
MTWFLSFWLKCGFVLLGLFFDFFLFCNRFLYASISFFFFFHSLSLFWNRNHLF | 79900
AAAPDVENEPAGRRKAAAAGVEQGGGHPHMLKGVCGNAGWGDAQAAAGKACKG | 26900
EARRSTREREREEGKSSGGGKGRRGRSGKPRGGGRGAGASGANPGPGAAAGAE | 29100
MLMLLGKHVLLLIKMISLMDPFQVNILLHRNNPFPAVSFFFYYSFCLFHILHF | 55200
AKVWKFHFHGSYTKISVHVINMIYCTMRGHEIPSLHIFKCDRLLTLSVLLGYI | 58200
FLAYVAKRIVWAIIRTIVYLRRDYLGYLSLGRGRSPSNVRGWLANKWYQFLLL | 50100
MYVWYSLSFLFPPTSPSLFLFLFYLFIYSLFYFFFYFSPYFFSFFLSSYTLHY | 63000
IGWFFPFWIVLLLPLDMASSLYEGCDMLCRRPFTWVSQSFLYIAWRTIYWTSF | 59000
TNAENSSQPSLAQWAKGREGVLMISSDVISNVQISIGKSRLASLLISLCLQRM | 47300
MLFVCFFWLWGWWLVVVVFVFLFFSFFLLLSSEFTDPFAFFCLFFFVLLHFSF | 44000
SLVLPCLSSYHYRFIDDYHVLHAQVKLMQGVLWWSMVQNITVYLLFLLLFLFA | 25200
LRYALDLYRSLRAKVWENSPLILRQLEGIGKMILIISLLRKLIGVIIQLMYCF | 55500

Sequence | transcriptional activation domain activity
QTVNFGWSDLPHDVYTHLSSDFENPFYFDGIFPTLVDYSPLIVSPPNFLTLEP | 138000
ARGMYLMVDVVANQFGILCSRADGTSIDDFDFSGLWPFSSSSYFHPMCWLYWL | 64000
FSLIKGLGSLVPLNKLRQESLLEEEDENNTEPSDFRTIVEEFQSEYNISDILS | 45000
MLLKRVHSKVYVQDCLLIGGRSIFVLDMHLFFKLLLFTAASIRNQTVIMLIFV | 54100
AMLMSLFVSVFCVYGVFIHVAASALQYQIVFFSPCIYMMLICGLSFLCCESPR | 75700
MCLYRYYGFRIFLCLVVVLGDLFLGYLKLYVYIYNTVLVYWGEISISLLLVYI | 71900
KLAKKEPKAAAKPKTEKAKVEKKPAAKKATTTKAKPAAPKAKAAAKPKAATTK | 23800
MTTWHKVFFFFRNLSFFCLFCLSCFFFLLLFLMKLETTNKVSILYLSLTLILF | 43700
SLPPPRFSPMFSFSLMSYLRCFDYYVCFFFSLFCFFSPALLVEGVVTFFSFIH | 60100
HFAGLVILGVFLMFINAIVLWPILKSFHDCKHLIKVWFFWMIYCLLFVLYIFC | 72600
MSSSLPSESPCQEPTKRRRKVKTGCRTCKIRRVKCDEGRPACHRCVSTGRVCD | 54000
MGCDVVGCDVVGFLFFLFFFILFLGLLVCWLAGWHVCWVFWFLVFVLGGLGGL | 48200
TVDSLLTFVPFFLLTLLFLLISLFLFILFFLIFFFLFIPFSSFLFIYFSLSFH | 32200
AVPGEVTEAEANGETDKAEGAAPAEGDAEKPKKKKKKSAKKPKSTGAEGEAAE | 24700
LYPQDLVSSPAMSHLTANNDDFDDLLSVASMNSNYLLPVNSHGYKHISNLDEL | 69100
RLRKDVGPFSPDDIQKPSLTWIHVRRNNLLLMMAPVRSYTWKAAQTLGEIFGA | 28000
MLTLLSVTHGLLHKSLVHLGSIFDLCLLWAQGKYTNPILSCLLSLYLLSWLLY | 62700
AFLLFLLYLTFFCWVCFATSATWVWSEILSDNQYTESFMPINDVLLAVLSGII | 53100

From the supplement of paper PMC12636428
